Test results reported in patent US11529397B2, “Method of treating mucopolysaccharidosis type IVA” (Saint Louis University, priority 2018, dated 2022).

B1: N-acetylgalactosamine-6-sulfatase (protein, listed as Homo sapiens)
chain: APQPPNILLLLMDDMGWGDLGVYGEPSRETPNLDRMAAEGLLFPNFYSANPLCSPSRAALLTGRLPIRNGFYTTNAHARNAYTPQEIVGGIPDSEQLLPELLKKAGYVSKIVGKWHLGHRPQFHPLKHGFDEWFGSPNCHFGPYDNKARPNIPVYRDWEMVGRYYEEFPINLKTGEANLTQIYLQEALDFIKRQARHHPFFLYWAVDATHAPVYASKPFLGTSQRGRYGDAVREIDDSIGKILELLQDLHVADNTFVFFTSDNGAALISAPEQGGSNGPFLCGKQTTFEGGMREPALAWWPGHVTAGQVSHQLGSIMDLFTTSLALAGLTPPSDRAIDGLNLLPTLLQGRLMDRPIFYYRGDTLMAATLGQHKAHFWTWTNSWENFRQGIDFCPGQNVSGVTTHNLEDHTKLPLIFHLGRDPGERFPLSFASAEYQEALSRITSVVQQHQEALVPAQPQLNVCNWAVMNWAPPGCEKLGKCLTPPESIPKKCLWSH
notes: recombinant human GALNS produced in CHO cells, used for ERT and oral tolerance

Experiments:
[1] = test system: splenocytes; assay: Cytokine production by splenocytes after in vitro stimulation (Example 3); type: cell-based, mouse; conditions: splenocytes of MKC mice treated by ERT with GALNS; culture supernatant
Experimental: Mice (MKC) genetically engineered not to express GALNS were used in these examples. […] 200 μl of the emulsion were administered as a subcutaneous injection. […] Control mice (n=2) were immunized with PBS emulsified in CFA and IFA respectively (Chung et al. (2005) J. Leukoc Biol. 77(6):906-13)). […] A control group (n=5) received PBS (Tomatsu et al. (2008) Hum Mol Genet. 15; 17(6):815-24). […]
The production of cytokines after peptide stimulation was evaluated as intracellular staining (by flow cytometry) and secreted cytokines (by LUMINEX). […] The cells were treated with 1 μl of a protein transport inhibitor BD GolgiPlug™ during 5 h at 37° C., saturated humidity and 5% CO2. The suspension of cells was centrifuged at 1000 rpm during 10 minutes. The supernatants were collected by further analysis with LUMINEX. The Fc receptors were blocked with 1 μl of α-mouse CD16/32 (e-Bioscience) during 15 min at 4° C. After washing, the cells were stained with PE-Cy7-labeled anti-mouse CD4 and Alexa700-labeled anti-mouse CD8 antibodies during 30 min at 4° C. After two washes, cells were permeabilized with a BD fixation/permeabilization solution during 20 min at 4° C. Cells were washed two times and stained with a cocktail of antibodies for intracellular staining (PE-labeled anti-mouse IL-4, APC-labeled anti-mouse IL-5 and FITC-labeled anti-mouse IFN-γ). After two washes, cells were analyzed by flow cytometry. Secreted cytokines (IL-4, IL-5, IL-13, IL-17 and IFN-γ) in the collected supernatants were detected by using a bead immunoassay kit which allows the measurement of multiple proteins simultaneously (LUMINEX technology, using a Millipore Milliplex™ kit).

[2] = test system: MKC mice; assay: Regulatory markers (CTLA-4, TGF-β) mRNA in Peyer patches after induction of tolerance (Example 21); type: in vivo, mouse; conditions: real-time PCR, oral 50, 100 or 500 μg
From the text: FIG. 25. Up-regulation of TGF-β expression after induction of tolerance in mice PP. […] Control groups were fed with PBS. […] The fold change in expression was related to the values of non-tolerized group. GAPDH was using as a housekeeping gene for the data normalization.
FIG. 26. Up-regulation of CTLA-4 expression after induction of tolerance in mice PP. […] Control groups were fed with PBS. […] The fold change in expression was related to the values of non-tolerized group. GAPDH was using as a housekeeping gene for the data normalization.
Regulatory Markers Evaluation in Peyer Patches (PP) after Induction of Tolerance. […] Most of the mice presented up-regulation of these regulatory molecules when compare with the non-tolerized group.

[3] = test system: Morquio A mice and WT mice; assay: Plasma IgG anti-GALNS by indirect ELISA in mice treated by ERT (Example 8); type: in vivo, mouse; conditions: 16 i.v. infusions of GALNS
Experimental: Morquio A mouse models: a). […] 14(22): p. 3321-35).c). Missense mutation mice (Galnstm (C76S) SLU C2) (Tomatsu et al. (2007) Mol Genet Metab., 91(3): p. 251-8), and wild-type C57BL6 mice were treated by ERT. […] A control group received PBS.
An indirect ELISA technique was used to detect plasma IgG antibodies against GALNS in treated and untreated mice. […] The plates were blocked with 3% casein in PBS during 1 h at room temperature in a wet chamber. After two washes, first with TTBS (10 mM Tris, 150 mM NaCl, 0.05% Tween 20, pH 7.5), and then with TBS (10 mM Tris, 150 mM NaCl, 0.05%, pH 7.5), […] of mice plasma samples diluted (1:1,000) in TTBS were added to the plate and incubated 2 h at 37° C. in a wet chamber. Four washes with TTBS were performed. 100 μl of anti-mouse IgG-Peroxidase (Sigma) 1:5,000 dilution in TTBS were applied. After three washes with TTBS, followed by one wash with TBS, the experiment was developed with the substrate TMB (3,3′,5,5′-Tetramethylbenzidine, Sigma). The enzymatic reaction was stopped with IN HCl solution and the absorbance was measured at 450 nm in a microplate reader Multiskan® EL800 (Bio-Tek Instruments). Plasma concentrations of IgG antibodies anti-GALNS were derived by extrapolation of the absorbance values from a calibration curve using a mAb anti-GALNS.

| Molecule | secretion of cytokines IL-5 and IFN-γ [1] | CTLA-4 expression in Peyer patches vs non-tolerized group [2] | TGF-β expression in Peyer patches vs non-tolerized group [2] | humoral response, IgG anti-GALNS in plasma ([3]; C2 mice) | humoral response, IgG anti-GALNS in plasma ([3]; MKC mice) | humoral response, IgG anti-GALNS in plasma ([3]; MTol mice) | humoral response, IgG anti-GALNS in plasma ([3]; WT mice) |
| --- | --- | --- | --- | --- | --- | --- | --- |
| QQHQEALVPAQPQLNVTNWA (listed as Homo sapiens) [Peptide I10] | strong response | predominantly up-regulated | observed in both groups | – | – | – | – |
| B1 | – | – | observed in both groups | heterogeneous humoral response | stronger and more homogeneous response | lowest levels of response | heterogeneous humoral response |
